Assays:
DEBS module 3+TE = DEBS module 3+TE (Saccharopolyspora erythraea); assay: ELISA
[1] = biological target: DEBS3 (bimodular protein of the 6-deoxyerythronolide B synthase) (Saccharopolyspora erythraea, UniProt Q03133); assay: SEC-SAXS
Chain of DEBS3 (bimodular protein of the 6-deoxyerythronolide B synthase) (Q03133 whole entry): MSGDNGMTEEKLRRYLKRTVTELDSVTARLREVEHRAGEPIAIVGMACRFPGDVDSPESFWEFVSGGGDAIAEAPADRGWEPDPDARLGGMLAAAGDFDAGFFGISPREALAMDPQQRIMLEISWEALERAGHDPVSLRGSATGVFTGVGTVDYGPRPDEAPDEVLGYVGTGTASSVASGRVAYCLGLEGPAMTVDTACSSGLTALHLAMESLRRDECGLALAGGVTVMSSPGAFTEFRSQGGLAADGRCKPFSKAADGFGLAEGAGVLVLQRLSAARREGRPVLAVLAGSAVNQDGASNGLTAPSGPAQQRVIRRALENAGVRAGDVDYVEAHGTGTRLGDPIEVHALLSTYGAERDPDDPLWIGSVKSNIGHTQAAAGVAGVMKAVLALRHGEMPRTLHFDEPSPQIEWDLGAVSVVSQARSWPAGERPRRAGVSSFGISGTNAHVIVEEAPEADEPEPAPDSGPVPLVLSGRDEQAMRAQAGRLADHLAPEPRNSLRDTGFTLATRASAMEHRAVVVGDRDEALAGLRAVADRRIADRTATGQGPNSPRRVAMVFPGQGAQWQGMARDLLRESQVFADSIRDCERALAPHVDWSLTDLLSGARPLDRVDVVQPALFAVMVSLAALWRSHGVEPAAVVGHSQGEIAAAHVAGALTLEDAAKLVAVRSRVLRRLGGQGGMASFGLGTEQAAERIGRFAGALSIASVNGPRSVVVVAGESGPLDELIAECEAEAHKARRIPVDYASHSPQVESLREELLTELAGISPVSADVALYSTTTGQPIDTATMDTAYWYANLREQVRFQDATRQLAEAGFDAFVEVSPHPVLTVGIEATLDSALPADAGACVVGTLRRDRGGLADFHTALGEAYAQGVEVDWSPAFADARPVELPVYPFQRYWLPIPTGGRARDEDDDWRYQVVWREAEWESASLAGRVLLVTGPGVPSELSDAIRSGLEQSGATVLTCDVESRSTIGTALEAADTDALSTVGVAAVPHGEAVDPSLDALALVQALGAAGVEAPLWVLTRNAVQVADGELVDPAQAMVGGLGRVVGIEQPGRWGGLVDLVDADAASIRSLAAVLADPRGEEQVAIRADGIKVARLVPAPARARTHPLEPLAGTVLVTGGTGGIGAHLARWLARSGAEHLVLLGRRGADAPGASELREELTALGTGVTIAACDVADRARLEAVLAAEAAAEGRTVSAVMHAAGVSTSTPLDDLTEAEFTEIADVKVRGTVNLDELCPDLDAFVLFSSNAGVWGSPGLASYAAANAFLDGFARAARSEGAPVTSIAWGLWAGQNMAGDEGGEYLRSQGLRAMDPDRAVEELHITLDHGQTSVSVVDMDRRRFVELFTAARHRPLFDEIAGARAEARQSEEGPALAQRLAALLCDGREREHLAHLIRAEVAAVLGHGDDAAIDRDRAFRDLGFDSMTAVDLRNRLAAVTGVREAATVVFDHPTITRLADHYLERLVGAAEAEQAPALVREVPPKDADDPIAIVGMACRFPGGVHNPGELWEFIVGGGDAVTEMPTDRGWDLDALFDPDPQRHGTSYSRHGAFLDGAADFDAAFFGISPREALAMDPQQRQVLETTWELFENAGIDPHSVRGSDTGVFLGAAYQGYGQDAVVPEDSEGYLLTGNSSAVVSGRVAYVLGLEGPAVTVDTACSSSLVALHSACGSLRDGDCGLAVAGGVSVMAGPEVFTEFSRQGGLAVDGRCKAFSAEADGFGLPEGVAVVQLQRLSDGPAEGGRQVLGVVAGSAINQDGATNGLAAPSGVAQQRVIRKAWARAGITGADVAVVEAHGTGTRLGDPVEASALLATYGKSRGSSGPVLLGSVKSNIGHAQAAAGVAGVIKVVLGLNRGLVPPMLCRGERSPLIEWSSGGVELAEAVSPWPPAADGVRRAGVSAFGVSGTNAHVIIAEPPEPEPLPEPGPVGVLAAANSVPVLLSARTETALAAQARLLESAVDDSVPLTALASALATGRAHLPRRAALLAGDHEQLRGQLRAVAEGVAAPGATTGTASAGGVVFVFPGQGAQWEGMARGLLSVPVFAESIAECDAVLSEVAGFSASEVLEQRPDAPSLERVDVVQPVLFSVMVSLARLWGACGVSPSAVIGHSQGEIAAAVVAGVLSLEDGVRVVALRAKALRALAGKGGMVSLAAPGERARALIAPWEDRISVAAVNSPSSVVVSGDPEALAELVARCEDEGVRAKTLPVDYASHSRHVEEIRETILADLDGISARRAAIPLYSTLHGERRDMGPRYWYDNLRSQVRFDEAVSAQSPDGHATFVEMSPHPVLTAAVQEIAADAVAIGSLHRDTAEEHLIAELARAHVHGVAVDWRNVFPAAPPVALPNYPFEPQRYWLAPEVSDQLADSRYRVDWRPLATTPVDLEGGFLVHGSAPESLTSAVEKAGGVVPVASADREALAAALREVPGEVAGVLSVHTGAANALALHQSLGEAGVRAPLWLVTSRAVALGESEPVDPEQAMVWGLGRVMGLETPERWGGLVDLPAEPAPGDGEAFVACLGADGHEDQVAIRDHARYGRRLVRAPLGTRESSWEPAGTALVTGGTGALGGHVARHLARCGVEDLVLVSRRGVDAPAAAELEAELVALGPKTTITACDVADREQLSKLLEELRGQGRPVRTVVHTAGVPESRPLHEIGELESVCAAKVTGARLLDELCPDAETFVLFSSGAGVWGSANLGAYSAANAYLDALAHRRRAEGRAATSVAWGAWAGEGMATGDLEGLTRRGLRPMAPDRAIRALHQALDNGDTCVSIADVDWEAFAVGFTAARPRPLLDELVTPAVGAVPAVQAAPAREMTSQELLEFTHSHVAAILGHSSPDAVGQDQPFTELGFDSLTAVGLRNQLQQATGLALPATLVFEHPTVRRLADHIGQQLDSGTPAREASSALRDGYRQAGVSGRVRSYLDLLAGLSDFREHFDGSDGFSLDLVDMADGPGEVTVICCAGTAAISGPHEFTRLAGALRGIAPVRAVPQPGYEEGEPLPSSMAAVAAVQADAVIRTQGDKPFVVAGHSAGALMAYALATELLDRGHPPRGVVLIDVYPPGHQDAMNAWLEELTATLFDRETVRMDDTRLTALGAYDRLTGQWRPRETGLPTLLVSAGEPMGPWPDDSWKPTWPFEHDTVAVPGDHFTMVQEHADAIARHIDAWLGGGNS

Kd (DEBS module 3+TE): 42 ± 12 nM
binding result [1]: binds
B1: Fab 3A6 (Fab, V domains shown)
VH: QVQLQQWGAGLLKPSETLSLTCAVYGGSFSGYYWSWIRQPPGKGLEWIGEINHSGSTNYNPSLKSRVTISVDTSKNQFSLKLSSVTAADTAVYYCARGLGYSGSYYAPNWGQGTLVTVSS
VL: not shown

Reference: publication PMC6424575 (Biochemistry, 2018)
